B1: unnamed (protein)
chain: MLSFLRSTGRPERRRASLPALLLFTAALVASGLTAAPAAQAADNPYQRGPDPTNASIEAATGPFAVGTQPIVGASGFGGGQIYYPTDTSQTYGAVVIVPGFISVWAQLNWLGPRLASQGFVVIGIETSVITDLPDPRGDQALAALDWATTRSPVASRIDRTRLAAAGWSMGGGGLRRAALQRPSLKAIVGMAPWNGERNWSAVTVPTLFFGGSSDAVASPNDHAKPFYNSITRAEKDYIELRNADHFFPNSANTTMAKYFISWLKRWVDNDTRYTQFLCPGPSTGLFAPVSASMNTCPF
B2: unnamed (protein)
chain: MLSFLRSTGRPERRRASLPALLLFTAALVASGLTAAPAAQAADNPYQRGPDPTNASIEAATGPFAVGTQPIVGASGFGGGQIYYPTDTSQTYGAVVIVPGFISVWAQLAWLGPRLASQGFVVIGIETSVITDLPDPRGDQALAALDWATTRSPVASRIDRTRLAAAGWSMGGGGLRRAALQRPSLKAIVGMAPWNGERNWSAVTVPTLFFGGSSDAVASPNDHAKPFYNSITRAEKDYIELRNADHFFPTSANTTMAKYFISWLKRWVDNDTRYTQFLCPGPSTGLFAPVSASMNTCPF
B3: unnamed (protein)
chain: MLSFLRSTGRPERRRASLPALLLFTAALVASGLTAAPAAQAADNPYQRGPDPTNASIEAATGPFAVGTQPIVGASGFGGGQIYYPTDTSQTYGAVVIVPGFISVWAQLNWLGPRLASQGFVVIGIETSTITDLPDPRGDQALAALDWATTRSPVASRIDRTRLAAAGWSMGGGGLRRAACQRPSLKAIVGMAPWNGEKNWSCVTVPTLFFGGSSDAVASPNDHAKPFYNSITRAEKDYIELCNADHFFPTSANTTMAKYFISWLKRWVDNDTRYTQFLCPGPSTGLFAPVCASMNTCPF
B4: unnamed (protein)
chain: MLSFLRSTGRPERRRASLPALLLFTAALVASGLTAAPAAQAADNPYQRGPDPTNASIEAATGPFAVGTQPIVGASGFGGGQIYYPTDTSQTYGAVVIVPGFISVWAQLNWLGPRLASQGFVVIGIETSVITDLPDPRGDQALAALDWATTRSPVASRIDRTRLAAAGWSMGGGGLRRAALQRPSLKAIVGMAPWNGERNWSAVTVPTLFFGGSSDAVASPNDHAKPFYNSITAAEKDYIELRNADHFFPTSANTTMAKYFISWLKRWVDNDTRYTQFLCPGPSTGLFAPVSASMNTCPF
B5: unnamed (protein)
chain: MLSFLRSTGRPERRRASLPALLLFTAALVASGLTAAPAAQAADNPYQRGPDPTNASIEAATGPFAVGTQPIVGASGFGGGQIYYPTDTSQTYGAVVIVPGFISVWAQLNWLGPRLASQGFVVIGIETSVITDLPDPRGDQALAALDWATTRSPVASRIDRTRLAAAGWSMGGGGLRRAALQRPSLKAIVGMAPWNGERNWSAVTVPTLFFGGSSDAVASPNDHAKPFYNSITRAEKDYIELRNADHFFPTSNNTTMAKYFISWLKRWVDNDTRYTQFLCPGPSTGLFAPVSASMNTCPF
B6: unnamed (protein)
chain: MLSFLRSTGRPERRRASLPALLLFTAALVASGLTAAPAAQAADNPYQRGPDPTNASIEAATGPFAVGTQPIVGASGFGGGQIYYPRDTSQTYGAVVIVPGFISVWAQLNWLGPRLASQGFVVIGIETSVITDLPDPRGDQALAALDWATTRSPVASRIDRTRLAAAGWSMGGGGLRRAALQRPSLKAIVGMAPWNGERNWSAVTVPTLFFGGSSDAVASPNDHAKPFYNSITRAEKDYIELRNADHFFPTSANTTMAKYFISWLKRWVDNDTRYTQFLCPGPSTGLFAPVSASMNTCPF
B7: unnamed (protein)
chain: MLSFLRSTGRPERRRASLPALLLFTAALVASGLTAAPAAQAADNPYQRGPDPTNASIEAATGPFAVGTQPIVGASGFGGGQIYYPTDTSQTYGAVVIVPGFISVWAQLNWLGPRLASQGFVVIGIETSVITDLPDPRGDQALAALDWATTRSPVRSRIDRTRLAAAGWSMGGGGLRRAACQRPSLKAIVGMAPWNGERNWSCVTVPTLFFGGSSDAVASPNDHAKPFYNSITRAEKDYIELCNADHFFPTSANTTMAKYFISWLKRWVDNDTRYTQFLCPGPSTGLFAPVCASMNTCPF
B8: unnamed (protein)
chain: MLSFLRSTGRPERRRASLPALLLFTAALVASGLTAAPAAQAADNPYQRGPDPTNASIEAATGPFAVGTQPIVGASGFGGGQIYYPTDTSQTYGAVVIVPGFISVWAQLNWLGPRLASQGFVVIGIETSVITDLPDPRGDQALAALDWATTRSPVASRIDRTRLAAAGWSMGGGGLRRAALQRPSLKAIVGMAPWNGEKNWSAVTVPTLFFGGSSDAVASPNDHAKPFYNSITRAEKDYIELRNADHFFPTSANTTMAKYFISWLKRWVDNDTRYTQFLCPGPSTGLFAPVSASMNTCPF
B9: unnamed (protein)
chain: MLSFLRSTGRPERRRASLPALLLFTAALVASGLTAAPAAQAADNPYQRGPDPTNASIEAATGPFAVGTQPIVGASGFGGGQIYYPTDTSQTYGAVVIVPGFISVWAQLNWLGPRLASQGFVVIGIETSVITDLPDSRGDQALAALDWATTRSPVASRIDRTRLAAAGWSMGGGGLRRAALQRPSLKAIVGMAPWNGERNWSAVTVPTLFFGGSSDAVASPNDHAKPFYNSITRAEKDYIELRNADHFFPTSANTTMAKYFISWLKRWVDNDTRYTQFLCPGPSTGLFAPVSASMNTCPF
B10: unnamed (protein)
chain: MLSFLRSTGRPERRRASLPALLLFTAALVASGLTAAPAAQAADNPYQRGPDPTNASIEAATGPFAVGTQPIVGASCFGGGQIYYPTDTSQTYGAVVIVPGFISVWAQLNWLGPRLASQGFVVIGIETSVITDLPDPRGDQALCALDWATTRSPVASRIDRTRLAAAGWSMGGGGLRRAALQRPSLKAIVGMAPWNGERNWSAVTVPTLFFGGSSDAVASPNDHAKPFYNSITRAEKDYIELRNADHFFPTSANTTMAKYFISWLKRWVDNDTRYTQFLCPGPSTGLFAPVSASMNTCPF
B11: unnamed (protein)
chain: MLSFLRSTGRPERRRASLPALLLFTAALVASGLTAAPAAQAADNPYQRGPDPTNASIEAATGPFAVGTQPIVGASGFGGGQIYYPTDTSQTYGAVVIVPGFISVWAQLNWLGPRLASQGFVVIGIETSVITDLPDPRGDQALAALDWATTRSPVASRIDRTRLAAAGWSMGGGGLRRAALQRPSLKAIVGMAPWNGERNWSAVTVPTLFFGGSSDAVASPNDHAKPFYNSITRAEKDYIELCNADHFFPTSANTTMAKYFISWLKRWVDNDTRYTQFLCPGPSTGLFAPVCASMNTCPF
B12: unnamed (protein)
chain: MLSFLRSTGRPERRRASLPALLLFTAALVASGLTAAPAAQAADNPYQRGPDPTNASIEAATGPFAVGTQPIVGASGFGGGQIYYPTDTSQTYGAVVIVPGFISVWAQLNWLGPRLASQGFVVIGIETSVITDLPDPRGDQALAALDWATTRSPVASAIDRTRLAAAGWSMGGGGLRRAALQRPSLKAIVGMAPWNGERNWSAVTVPTLFFGGSSDAVASPNDHAKPFYNSITRAEKDYIELRNADHFFPTSANTTMAKYFISWLKRWVDNDTRYTQFLCPGPSTGLFAPVSASMNTCPF
B13: unnamed (protein)
chain: MLSFLRSTGRPERRRASLPALLLFTAALVASGLTAAPAAQAADNPYQRGPDPTNASIEAATGPFAVGTQPIVGASGFGGGQIYYPTDTSQTYGAVVIVPGFISVWAQLNWLGPRLASQGFVVIGIETSVITDLPDPRGDQALAALDWATTRSPVASRIDRTRLAAAGWSMGGGGLRRAALQRPSLKAIVGMTPWNGERNWSAVTVPTLFFGGSSDAVASPNDHAKPFYNSITRAEKDYIELRNADHFFPTSANTTMAKYFISWLKRWVDNDTRYTQFLCPGPSTGLFAPVSASMNTCPF
B14: unnamed (protein)
chain: MLSFLRSTGRPERRRASLPALLLFTAALVASGLTAAPAAQAADNPYQRGPDPTNASIEAATGPFAVGTQPIVGASGFGGGQIYYPTDTSQTYGAVVIVPGFISVWAQLNWLGPRLASQGFVVIGIETSVITDYPDPRGDQALAALDWATTRSPVASRIDRTRLAAAGWSMGGGGLRRAALQRPSLKAIVGMAPWNGERNWSAVTVPTLFFGGSSDAVASPNDHAKPFYNSITRAEKDYIELRNADHFFPTSANTTMAKYFISWLKRWVDNDTRYTQFLCPGPSTGLFAPVSASMNTCPF
B15: unnamed (protein)
chain: MLSFLRSTGRPERRRASLPALLLFTAALVASGLTAAPAAQAADNPYQRGPDPTNASIEAATGPFAVGTQPIVGASGFGGGQIYYPTDTSQTYGAVVIVPGFISVWASLNWLGPRLASQGFVVIGIETSVITDLPDPRGDQALAALDWATTRSPVASRIDRTRLAAAGWSMGGGGLRRAALQRPSLKAIVGMAPWNGERNWSAVTVPTLFFGGSSDAVASPNDHAKPFYNSITRAEKDYIELRNADHFFPTSANTTMAKYFISWLKRWVDNDTRYTQFLCPGPSTGLFAPVSASMNTCPF
B16: unnamed (protein)
chain: MLSFLRSTGRPERRRASLPALLLFTAALVASGLTAAPAAQAADNPYQRGPDPTNASIEAATGPFAVGTQPIVGASGFGGGQIYYPTDTSQTYGAVVIVPGFISVWAQLNWLGPRLASQGFVVIGIETSVITDLPDPRGDQALAALDWATTRSPVASRIDRTRLAAAGWSMGGGGLRRAALQRPSLKAIVGMAPWNLERNWSAVTVPTLFFGGSSDAVASPNDHAKPFYNSITRAEKDYIELRNADHFFPTSANTTMAKYFISWLKRWVDNDTRYTQFLCPGPSTGLFAPVSASMNTCPF

substrate: pcPET (post-consumer); test: Proxy for plastic degradation [Released monomer concentration (HPLC/LC-MS) (TPA+MHET+BHET)]; conditions: pH 9; 40 °C; 24 h

Protein	Proxy for plastic degradation [µM]
B1	10
B2	720
B3	1200
B4	715
B5	530
B6	485
B7	948
B8	950
B9	680
B10	295
B11	890
B12	225
B13	495
B14	405
B15	620
B16	520

same assay, conditions: pH 9; 60 °C; 6 h

Protein	Proxy for plastic degradation [µM]
B3	1020
B7	360

From the PETadex activity labels (doi:10.1038/s41467-023-40233-w)
